B1: Qs IMEF cargo protein, purified alone and crystallised (natural protein)
chain: MKEELDAFHQIFTTTKEAIERFMAMLTPVIENAEDDHERLYYHHIYEEEEQRLSRLDVLIPLIEKFQDETDEGLFSPSNNAFNRLLQELNLEKFGLHNFIEHVDLALFSFTDEERQTLLKELRKDAYEGYQYVKEKLAEINARFDHDYADPHAHHDEHRDHLADMPSAGSSHEEVQPVAHKKKGFTVGSLIQ
B2: Quasibacillus thermotolerans (Qs) IMEF encapsulin capsid protein, assembled T = 4 shell (natural protein)
chain: MNKSQLYPDSPLTDQDFNQLDQTVIEAARRQLVGRRFIELYGPLGRGMQSVFNDIFMESHEAKMDFQGSFDTEVESSRRVNYTIPMLYKDFVLYWRDLEQSKALDIPIDFSVAANAARDVAFLEDQMIFHGSKEFDIPGLMNVKGRLTHLIGNWYESGNAFQDIVEARNKLLEMNHNGPYALVLSPELYSLLHRVHKDTNVLEIEHVRELITAGVFQSPVLKGKSGVIVNTGRNNLDLAISEDFETAYLGEEGMNHPFRVYETVVLRIKRPAAICTLIDPEE

Legend:
crystal structure = biological target: the molecule itself; experiment: crystal structure
cryo-EM structure = biological target: the molecule itself; experiment: cryo-EM structure

| Protein | stoichiometry N (crystal structure) | stoichiometry N (cryo-EM structure) |
| --- | --- | --- |
| B1 | 2 |  |
| B2 |  | 240 |

Source: doi:10.1101/511345 (bioRxiv, 2019)
